Reference: publication PMC7375805

Molecular target: AP2 FLAP (full-length β2 subunit AP2 complex, i.e. AP2 lacking the α appendage and the α hinge) (UniProt P18484)
Experiment: cryo-EM structure; cryo-electron tomography and subtomogram averaging of AP2 FLAP on liposomes with PtdIns(4,5)P2 and TGN38 YxxΦ lipopeptide, no clathrin, HKM2 buffer; ~9 Å

Substance: AP2 FLAP (full-length β2 subunit AP2 complex, i.e. AP2 lacking the α appendage and the α hinge) (from UniProt P18484 1-621; P63010 1-937; P84092 1-435; P62743 1-142)
- percent of AP2 dimerized: 20%
- stoichiometry N: 2
